Laboratory results reported in PMC3266934, “The Murine Coronavirus Hemagglutinin-esterase Receptor-binding Site: A Major Shift in Ligand Specificity through Modest Changes in Architecture” (PLoS Pathogens, 2012).
Residue numbers refer to the chain shown, from its start.

Target: the molecule itself
Test: crystal structure; crystals of the thrombin-released ectodomain, space group P2(1)2(1)2(1), two HE molecules in the asymmetric unit; free HE (2.1 Å) and HE^0 soaked with a sialic acid receptor analogue (2.5 Å); 0.2 M KH2PO4, 0.2 M sodium malonate, 15% PEG3350, 18°C

B1: MHV-S HE ectodomain (mouse hepatitis virus strain S hemagglutinin-esterase, residues 25-403), released from HE-Fc by thrombin cleavage (domain or fragment)
chain: FNEPLNIVSHLNDDWFLFGDSRSDCTYVENNGHPKLDWLDLDPKLCNSGRISAKSGNSLFRSFHFIDFYNYSGEGDQVIFYEGVNFSPSHGFKCLAYGDNKRWMGNKARFYARVYEKMAQYRSLSFVNVSYAYGGNAKPTSICKDKTLTLNNPTFISKESNYVDYYYESEANFTLQGCDEFIVPLCVFNGHSKGSSSDPANKYYTDSQSYYNMDTGVLYGFNSTLDVGNTVQNPGLDLTCRYLALTPGNYKAVSLEYLLSLPSKAICLRKPKSFMPVQVVDSRWNSTRQSDNMTAVACQLPYCFFRNTSADYSGGTHDVHHGDFHFRQLLSGLLYNVSCIAQQGAFVYNNVSSSWPAYGYGHCPTAANIGYMAPVCIYD
notes: also called free MHV-S HE; not shown: Fc (human IgG1), C-terminal, cleaved
**Q.** Does B1 bind?
**A.** binds

B2: MHV-S HE^0 ectodomain (esterase-inactive, Ser45 replaced by Ala, residues 25-403), released from HE^0-Fc by thrombin cleavage (domain or fragment)
chain: B1 chain with S21A
notes: not shown: Fc (human IgG1), C-terminal, cleaved
**Q.** Does B2 bind?
**A.** binds
